Measurements reported in paper PMC6899756, “Identification of amino acid residues of nerve growth factor important for neurite outgrowth in human dorsal root ganglion neurons” (The European Journal of Neuroscience, 2019).

Legend:
[1] = target: T1, tropomyosin-related kinase A (TrkA) receptor (human, UniProt P04629-2 33-790, phosphotyrosine at 490 (Y490) and at 785 (Y785) after treatment of the cells with NGF); assay: cell-based or functional assay
[2] = target: T1, tropomyosin-related kinase A (TrkA) …; assay: cell-based or functional assay; remark: listed apart in the source

T1 sequence (P04629 other isoform, or with tags, fused parts or gaps): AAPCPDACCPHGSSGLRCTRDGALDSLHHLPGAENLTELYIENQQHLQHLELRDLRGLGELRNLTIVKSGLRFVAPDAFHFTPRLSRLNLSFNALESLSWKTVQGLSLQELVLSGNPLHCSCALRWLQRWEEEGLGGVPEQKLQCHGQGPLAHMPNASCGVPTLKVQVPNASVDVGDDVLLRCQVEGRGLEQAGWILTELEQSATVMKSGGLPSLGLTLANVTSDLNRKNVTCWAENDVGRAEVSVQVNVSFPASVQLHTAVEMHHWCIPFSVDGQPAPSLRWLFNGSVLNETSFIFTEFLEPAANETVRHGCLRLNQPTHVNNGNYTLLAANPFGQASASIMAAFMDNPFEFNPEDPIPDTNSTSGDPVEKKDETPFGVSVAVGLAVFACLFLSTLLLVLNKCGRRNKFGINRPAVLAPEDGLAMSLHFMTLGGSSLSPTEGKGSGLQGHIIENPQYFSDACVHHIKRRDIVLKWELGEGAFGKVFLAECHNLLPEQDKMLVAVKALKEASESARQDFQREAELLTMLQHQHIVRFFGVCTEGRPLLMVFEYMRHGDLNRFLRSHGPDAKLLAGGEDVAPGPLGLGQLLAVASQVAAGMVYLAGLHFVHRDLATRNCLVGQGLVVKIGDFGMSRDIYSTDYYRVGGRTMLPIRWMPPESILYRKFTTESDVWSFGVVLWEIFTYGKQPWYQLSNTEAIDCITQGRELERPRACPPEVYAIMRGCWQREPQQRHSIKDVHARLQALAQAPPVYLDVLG

B1: Src homology 2 domain containing transforming protein 1 (SHC1) (natural protein, UniProt P29353 1-583, looked up)
chain: MDLLPPKPKYNPLRNESLSSLEEGASGSTPPEELPSPSASSLGPILPPLPGDDSPTTLCSFFPRMSNLRLANPAGGRPGSKGEPGRAADDGEGIVGAAMPDSGPLPLLQDMNKLSGGGGRRTRVEGGQLGGEEWTRHGSFVNKPTRGWLHPNDKVMGPGVSYLVRYMGCVEVLQSMRALDFNTRTQVTREAISLVCEAVPGAKGATRRRKPCSRPLSSILGRSNLKFAGMPITLTVSTSSLNLMAADCKQIIANHHMQSISFASGGDPDTAEYVAYVAKDPVNQRACHILECPEGLAQDVISTIGQAFELRFKQYLRNPPKLVTPHDRMAGFDGSAWDEEEEEPPDHQYYNDFPGKEPPLGGVVDMRLREGAAPGAARPTAPNAQTPSHLGATLPVGQPVGGDPEVRKQMPPPPPCPGRELFDDPSYVNVQNLDKARQAVGGAGPPNPAINGSAPRDLFDMKPFEDALRVPPPPQSVSMAEQLRGEPWFHGKLSRREAEALLQLNGDFLVRESTTTPGQYVLTGLQSGQPKHLLLVDPEGVVRTKDHRFESVSHLISYHMDNHLPIISAGSELCLQQPVERKL
[1]
  plateau of the second activation phase at around 10 μg/ml NGF-K95A/Q96A in U2OS-TrkA/p75-SHC1 cells, relative to wild-type NGF (interaction between TrkA and SHC1, enzyme fragment complementation): ~300%
  second activation phase EC50 of NGF-K95A/Q96A in U2OS-TrkA/p75-SHC1 cells (interaction between TrkA and SHC1, enzyme fragment complementation): ~3 µg/mL
[2]
  EC50 of NGF-K95A/Q96A added to U2OS-TrkA/p75-SHC1 cells for the interaction between TrkA and SHC1 (enzyme fragment complementation, chemiluminescence): 0.02 µg/mL
  EC50 of NGF-R100E added to U2OS-TrkA/p75-SHC1 cells for the interaction between TrkA and SHC1 (enzyme fragment complementation, chemiluminescence): 0.00056 µg/mL
  EC50 of NGF-W99A added to U2OS-TrkA/p75-SHC1 cells for the interaction between TrkA and SHC1 (enzyme fragment complementation, chemiluminescence): 0.023 µg/mL
  EC50 of wild-type NGF added to U2OS-TrkA/p75-SHC1 cells for the interaction between TrkA and SHC1 (enzyme fragment complementation, chemiluminescence): 0.0042 µg/mL
